± gives the standard error. This sample holds only a part of the variants without activity.
B1: glmS ribozyme (parent)
chain: AUAAAAGCGCCAGAACUACAGAAAUGUAGUUGACGAGGAGGAGGUUUAUCGAAUUUUCGGCGGAUGCCUCCAAA

Columns and labels:
Conditions in all cases: with glucosamine-6-phosphate
[1] = variants of: B1; test: self-cleavage kobs at 40 uM GlcN6P; higher = faster cleavage; RNA array
Method in brief: (§1)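 Sequenced MiSeq chips were the platform: E. coli RNA polymerase transcribed barcoded ribozyme variants on them in situ, and a hybridised Cy3 probe tracked these at 37 °C. After glucosamine-6-phosphate (40 μM to 10 mM) in HEPES/KCl/Mg(OAc)2 buffer was flowed in, tiles were imaged over ~14 h. Signals normalised to baseline and to non-cleaving reference variants were reduced to per-tile medians and fit to one- or two-exponential decays to obtain kobs. kcat and KM were derived through weighted Michaelis–Menten fits across concentrations.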

[2] = variants of: B1; test: self-cleavage kobs at 10000 uM GlcN6P; higher = faster cleavage; RNA array
Method in brief: as §1

[3] = variants of: B1; test: self-cleavage kobs at 2500 uM GlcN6P; higher = faster cleavage; RNA array
Method in brief: as §1

[4] = variants of: B1; test: self-cleavage kobs at 160 uM GlcN6P; higher = faster cleavage; RNA array
Method in brief: as §1

[5] = variants of: B1; test: self-cleavage kobs at 640 uM GlcN6P; higher = faster cleavage; RNA array
Method in brief: as §1

Variant	self-cleavage kobs at 40 uM GlcN6P [1]	self-cleavage kobs at 10000 uM GlcN6P [2]	self-cleavage kobs at 2500 uM GlcN6P [3]	self-cleavage kobs at 160 uM GlcN6P [4]	self-cleavage kobs at 640 uM GlcN6P [5]
U31C G43U G66A	< 1e-05 s⁻¹				
G9A C11A G35C A42G	< 1e-05 s⁻¹	< 1e-05 s⁻¹			
C10G G35C G40A U57G	< 1e-05 s⁻¹		< 1e-05 s⁻¹		
G29A U69C	6.51e-05 ± 1.6e-05 s⁻¹	0.000486 ± 0.00013 s⁻¹	0.000105 ± 1.6e-05 s⁻¹	7e-05 ± 1.3e-05 s⁻¹	0.000122 ± 2.2e-05 s⁻¹
A14C C16G C50G	8.94e-05 ± 3.4e-05 s⁻¹				
C8A U30A	< 1e-05 s⁻¹	< 1e-05 s⁻¹	< 1e-05 s⁻¹	< 1e-05 s⁻¹	
G7U G29A U30C C34U U45A	< 1e-05 s⁻¹				
A6G A64C	< 1e-05 s⁻¹	< 1e-05 s⁻¹		< 1e-05 s⁻¹	< 1e-05 s⁻¹
A14G U31G G40A C71A	5.41e-05 ± 1.8e-05 s⁻¹	0.000822 ± 0.00016 s⁻¹			
C11U G63A	< 1e-05 s⁻¹	< 1e-05 s⁻¹	< 1e-05 s⁻¹	< 1e-05 s⁻¹	< 1e-05 s⁻¹
G7A G21U A33G C67U U69G	8.76e-05 ± 2.2e-05 s⁻¹	0.000115 ± 1.8e-05 s⁻¹			
C10A U57C	< 1e-05 s⁻¹			< 1e-05 s⁻¹	
G13C A48U	< 1e-05 s⁻¹	< 1e-05 s⁻¹	< 1e-05 s⁻¹		
G29A U56C G59A C71A	< 1e-05 s⁻¹	< 1e-05 s⁻¹			
C10G A53U G59A C70G	< 1e-05 s⁻¹	< 1e-05 s⁻¹			
U45A U69C	0.000354 ± 5.9e-05 s⁻¹	0.00144 ± 0.00031 s⁻¹	0.00166 ± 0.0005 s⁻¹	0.000781 ± 0.00033 s⁻¹	0.000518 ± 0.00013 s⁻¹
C10A C11A	< 1e-05 s⁻¹	< 1e-05 s⁻¹			< 1e-05 s⁻¹
A42U C58G	< 1e-05 s⁻¹		< 1e-05 s⁻¹	< 1e-05 s⁻¹	< 1e-05 s⁻¹
A36G C50U U57A	< 1e-05 s⁻¹	< 1e-05 s⁻¹			
G35C U46G	< 1e-05 s⁻¹	< 1e-05 s⁻¹	< 1e-05 s⁻¹	< 1e-05 s⁻¹	< 1e-05 s⁻¹
A15G U30A U31G G41U	0.00015 ± 5.1e-05 s⁻¹	0.000456 ± 0.00017 s⁻¹			
A6C U57G	< 1e-05 s⁻¹				< 1e-05 s⁻¹
A6G G66U	< 1e-05 s⁻¹			< 1e-05 s⁻¹	< 1e-05 s⁻¹

— the supplement of paper PMC7125110
